Molecular target: T1, human PD-1 expressed on cells (CHO TREX human PD1 cell line, full-length human PD-1 sequence) (human, UniProt Q15116 21-288)
T1 construct: Also used for human PD-1 on Jurkat reporter cells, on PathHunter cells and on PHA-stimulated human CD4+ T cells; also called CHO human PD1 cells; CHO human PD-1 cells
Experiment: worded summary of the screens

T1 sequence (Q15116 21-288): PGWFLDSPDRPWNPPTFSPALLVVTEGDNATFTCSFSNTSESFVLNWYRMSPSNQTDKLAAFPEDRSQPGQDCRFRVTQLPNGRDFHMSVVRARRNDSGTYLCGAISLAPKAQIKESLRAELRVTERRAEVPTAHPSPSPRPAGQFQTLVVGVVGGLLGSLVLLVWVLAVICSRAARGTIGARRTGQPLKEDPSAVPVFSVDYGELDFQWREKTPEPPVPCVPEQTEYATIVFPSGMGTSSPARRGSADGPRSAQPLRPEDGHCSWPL

binding result	Binder
binds	1.10b (VHH) VHH: QVQLVESGGGLVKPGGSLRLSCAASGFTFSDYTMSWMRQAPGKGLEWISYISLGGNTKYYTDSVKGRFTISRDNAKNSLYLQMNSLRADDTAVYYCAREAPLRLGESPHDAFDIWGQGTMVTVSS
binds	1.6b (VHH) VHH: EVQLLESGGGLVKPGGSLRLSCAASGFTFSDYTMTWMRQAPGKGLEWVSYISTGGTIKYYTDSVKGRFTISRDNAKNSLYLQMSSLRADDTAVYYCAREAPLRLGESPHDAFDIWGQGTMVTVSS
binds	1.39b (VHH) VHH: QVQLQESGGGLVKPGGSLRLSCAASGFTFSDYTMTWMRQAPGKGLEWVSYISTGGSIKYYTDSVKGRFTISRDNAKNSLYLQMNSLRADDTAVYYCAREAPLRLGESPHDAFDIWGQGTMVTVSS
binds	1.17b (VHH) VHH: EVQLVESGGGLVKPGGSLRLSCAASGFTFSDYTMTWMRQAPGKGLEWVSYISTGGSIKYYTDSVKGRFTISRDNAKNSLYLQMNSLRVDDTAVYYCAREAPLRLGESPHDAFDIWGQGTMVTVSS
binds	1.5b (VHH) VHH: EVQLVESGGGLVKPGGSLRLSCAASGFTFSDYTMTWMRQAPGKGLEWVSYISTGGNTKYYTDSVKGRFTISRDNAKNSLYLQMNSLRADDTAVYYCAREAPLRLGESPHDAFDIWGQGTMVTVSS
binds	1.44b (VHH) VHH: QVQLVESGGGLVKPGGSLRLSCAASGFTFSDNSMTWMRQAPGKGLEWVSYISSGGAVKFYADSVKGRFTISRDNAKNSLYLQMNSLRADDTAVYYCAREAPLRLGESPHDAFDIWGQGTMVTVSS
binds	1.35b (VHH) VHH: EVQLLESGGGLVKPGGSLRLSCAASGFTFSDYTMTWMRQAPGKGLEWVSYISTGGSIKYYTDSVKGRFTISRDNAKNSLYLQMNSLRVDDTAVYYCAREAPLRLGESPHDAFDIWGQGTMVTVSS
binds	1.19b (VHH) VHH: QVQLVESGGGLVKPGGSLRLSCAASGFTFSDYTMTWMRQAPGKGLEWVSYISTGGSIKYYTDSVKGRFTISRDNAKNSLYLQMNSLRAEDTAVYYCAREAPLRLGETPHDAFDIWGQGTMVTVSS
binds	1.21b (VHH) VHH: EVQLVESGGGLVKPGGSLRLSCAASGFTFSDYTMTWMRQAPGKGLEWVSYISTGGSIKYYTDSVKGRFTISRDNAKNSLYLQMNSLRADDTAVYYCAREAPLRLGESPHDAFDTWGQGTMVTVSS
binds	1.46b (VHH) VHH: QVQLVESGGGLVKPGGSLRLSCAASGFTFSDSSMSWMRQAPGKGLEWVSYISSGGGVIFYADSVKGRFTISRDNAKNSLYLQMNSLRADDTAVYYCAREAPLRLGESPHDAFDIWGQGTMVTVSS
binds	1.32b (VHH) VHH: QVTLKESGGGLVKPGGSLRLSCAASGFTFSDDYMMWIRQAPGKGLEWVSYISSGGSIIYYADSVKGRFTISRDNAKNSLYLQMNSLRAEDTAVYYCAREAPLRLGESPHDAFDIRGQGTMVTVSS
binds	1.29b (VHH) VHH: QVTLKESGGGLVKPGGSLRLSCAASGFTFSDYTMSWMRQAPGKGLEWVSYISTGGTIKYYTDSVKGRFTISRDNAKNSLYLQMNSLRADDTAVYYCAREAPLRLGESPHDAFDIWGQGTMVTVSS

Second part, the binder before the results:

Binder	binding result
1.2b (VHH) VHH: EVQLLESGGGLVKPGGSLRLSCAASGFTFSDYTMTWMRQAPGKGLEWVSYISTGGSIKYYTDSVKGRFTISRDNAKNSLYLQMNSLRADDTAVYYCAREAPLRLGESPHDAFDIWGQGTMVTVSS	binds
1.3b (VHH) VHH: QVQLVESGGGLVKPGGSLRLSCAASGFTFSDYTMTWMRQAPGKGLEWVSYISTGGSIKYYTDSVKGRFTISRDNAKNSLYLQMNSLRADDTAVYYCAREAPLRLGESPHDAFDIWGQGTMVTVSS	binds
1.47b (VHH) VHH: QVQLVESGGGLVKPGGSLRLSCAASGFTFSDNSMSWMRQAPGKGLEWVSYISSGGGVIFYADSVKGRFTISRDNAKNSLYLQMNSLRADDTAVYYCAREAPLRLGESPHDAFDIWGQGTMVTVSS	binds
1.22b (VHH) VHH: EVQLVESGGGLVKPGGSLRLSCAASGFTFSDYTMTWMRQAPGKGLEWVSYISTGGSIKYYTDSVKGRFTISRDNAKNSLYLQMNSLRADDTAVYYCAREAPLRLGESPHDAFDIWGQGTMVTVSS	binds
1.30b (VHH) VHH: QVTLKESGGGLVKPGGSLRLSCAASGFTFSDYTMTWMRQAPGKGLEWVSYISTGGSIKYYTDSVKGRFTISRDNARNSLYLQMNSLRAEDTAVYYCAREAPLRLGESPHDAFDIWGQGTMVTVSS	binds
1.16b (VHH) VHH: EVQLVESGGGLVKPGGSLRLSCAASGFTFSDYTMSWMRQAPGKGLEWVSYISTGGSIKYYTDSVKGRFTISRDNAKNSLYLQMNSLRADDTAVYYCAREAPLRLGESPHDAFDIWGQGTMVTVSS	binds
1.42b (VHH) VHH: QVQLVESGGGLVKPGGSLRLSCAASGFTFSDNSMTWMRQAPGKGLEWVSYISSGGGVKFYADSVKGRFTISRDNAKNSLYLQMNSLRADDTAVYYCAREAPLRLGESPHDAFDIWGQGTMVTVSS	binds
1.31b (VHH) VHH: QVTLKESGGGLVKPGGSLRLSCAASGFTFSDYTMTWMRQAPGKGLEWVSYISTGGSTKYYTDSVKGRFTISRDNAKNSLYLQMNSLRADDTAVYYCAREAPLRLGESPHDAFDIWGQGTMVTVSS	binds
1.27b (VHH) VHH: QVTLKESGGGLVKPGGSLRLSCAASGFTFSDYTMTWMRQAPGKGLEWVSYISTGGSIKYYTDSVKGRFTISRDNAKNSLYLQMNSLRADDTAVYYCAREAPLRLGESPHDAFDIWGQGTMVTVSS	binds
1.4b (VHH) VHH: QVQLVESGGGLVKPGGSLRLSCAASGFTFSDYYMIWMRQAPGKGLEWVSYISGGGTTKYYTDSVKGRFTISRDNAKNSLYLQMNSLRADDTAVYYCAREAPLRLGETPHDAFDIWGQGTMVTVSS	binds
1.8b (VHH) VHH: EVQLVESGGGLVKPGGSLRLSCAASGFTFSDYTMTWMRQAPGKGLEWVSYISTGGSIKYYTDSVKGRFTISRDNAKNSLYLQMNSLRAGDTAVYYCAREAPLRLGESPHDAFDIWGQGTMVTVSS	binds
1.9b (VHH) VHH: QVQLVESGGGLVKPGGSLRLSCAASGFTFGDYTMTWMRQAPGKGLEWVSYISTGGTIKYYTDSVKGRFTISRDNAKNSLYLQMDSLRADDTAVYYCAREAPLRLGESPHDAFDIWGQGTMVTVSS	binds
1.11b (VHH) VHH: EVQLLESGGGLVKPGGSLRLSCAASGFTFSDYDMTWIRQAPGKGQEWVSYISRGGSTKYYADSVKGRFTISRDNAKNSLYLQMNSLRAEDTAVYYCAREAPLRLGETPHDAFDIWGQGTMVTVSS	binds
1.23b (VHH) VHH: QITLKESGGGLVKPGGSLRLSCAASGFTFSDYTMSWMRQAPGKGLEWVSYISTGGTIKYYTDSVKGRFTISRDNAKNSLYLQMNSLRADDTAVYYCAREAPLRLGESPHDAFDIWGQGTMVTVSS	binds
1.34b (VHH) VHH: EVQLVESGGGLVKPGGSLRLSCAASGFTFSDYTMTWMRQAPGKGLEWVSYISTGGSVKYYTDSVKGRFTISRDNAKNSLYLQMNSLRADDTAVYYCAREAPLRLGESPHDAFDIWGQGTMVTVSS	binds
1.43b (VHH) VHH: QVQLVESGGGLVKPGGSLRLSCAASGFTFSDSSMTWMRQAPGKGLEWVSYISSGGGVIFYADSVKGRFTISRDNAKNSLYLQMNSLRADDTAVYYCAREAPLRLGESPHDAFDIWGQGTMVTVSS	binds
1.37b (VHH) VHH: QVQLVESGGGLVKPGGSLRLSCAASGFTFSDYTMTWMRQAPGKGLEWVSYISTGGSIKYYTDSVKGRFTISRDNAKNSLFLQMNSLRADDTAVYYCAREAPLRLGESPHDAFDIWGQGTMVTVSS	binds
1.45b (VHH) VHH: QVQLVESGGGLVKPGGSLRLSCAASGFTFSDYSMSWMRQAPGKGLEWVSYISSGGGVIFYADSVKGRFTISRDNAKNSLYLQMNSLRADDTAVYYCAREAPLRLGESPHDAFDIWGQGTMVTVSS	binds
1.20b (VHH) VHH: EVQLLESGGGLVKPGGSLRLSCAASGFTFSDYTMTWMRQAPGKGLEWVSYISSGGSIKFYADSVKGRFTISRDNAKNSLYLQMNSLRAEDTAVYYCAREAPLRLGESPHDAFDIWGQGTMVTVSS	binds
1.36b (VHH) VHH: EVQLVESGGGLVKPGGSLRLSCAASGFTFSDYTMTWMRQAPGKGLEWVSYISTGGTIKYYTDSVKGRFTISRDNAKNSLFLQMNSLRADDTAVYYCAREAPLRLGESPHDAFDIWGQGTMVTVSS	binds

Source: patent US20220306744A1 (CRESCENDO BIOLOGICS, published 2022)
